Holding throughout (assay): enzyme inhibition kinetics
Test [1] deals with T1, ADAMTS5-2 (human ADAMTS-5 deletion mutant, C-terminal FLAG-tag) (human, UniProt Q9UNA0 262-874).
T1 sequence (looked up): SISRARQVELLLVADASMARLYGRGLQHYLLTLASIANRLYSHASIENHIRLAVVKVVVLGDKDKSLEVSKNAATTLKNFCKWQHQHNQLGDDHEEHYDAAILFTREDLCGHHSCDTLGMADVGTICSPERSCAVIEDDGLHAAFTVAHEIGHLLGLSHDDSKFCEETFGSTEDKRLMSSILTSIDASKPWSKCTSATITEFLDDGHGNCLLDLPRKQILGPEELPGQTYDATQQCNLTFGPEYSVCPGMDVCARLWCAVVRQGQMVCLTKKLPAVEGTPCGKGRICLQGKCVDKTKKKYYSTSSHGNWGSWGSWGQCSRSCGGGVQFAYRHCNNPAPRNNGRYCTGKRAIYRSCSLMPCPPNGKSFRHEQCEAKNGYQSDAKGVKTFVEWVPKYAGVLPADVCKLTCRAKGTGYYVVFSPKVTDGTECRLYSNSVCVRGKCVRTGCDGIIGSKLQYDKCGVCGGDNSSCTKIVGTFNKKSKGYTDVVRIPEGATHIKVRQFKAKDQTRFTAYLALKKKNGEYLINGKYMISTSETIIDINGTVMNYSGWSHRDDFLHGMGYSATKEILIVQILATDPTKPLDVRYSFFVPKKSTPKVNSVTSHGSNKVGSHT

The target of test [2] is T2, ADAMTS4-4 (human ADAMTS-4 deletion mutant, C-terminal FLAG-tag) (human, UniProt O75173 213-519).
T2 sequence (looked up): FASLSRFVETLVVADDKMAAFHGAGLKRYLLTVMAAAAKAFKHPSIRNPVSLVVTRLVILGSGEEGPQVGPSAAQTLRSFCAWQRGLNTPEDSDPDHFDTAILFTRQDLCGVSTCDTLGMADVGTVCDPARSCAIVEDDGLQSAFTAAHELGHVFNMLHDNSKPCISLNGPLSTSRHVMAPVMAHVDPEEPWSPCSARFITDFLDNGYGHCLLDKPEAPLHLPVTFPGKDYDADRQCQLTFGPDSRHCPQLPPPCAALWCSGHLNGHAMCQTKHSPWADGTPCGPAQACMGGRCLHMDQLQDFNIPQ

Test [3] deals with T3, ADAMTS4-1 (full-length human ADAMTS-4, C-terminal FLAG-tag) (human, UniProt O75173 213-837).
T3 sequence (looked up): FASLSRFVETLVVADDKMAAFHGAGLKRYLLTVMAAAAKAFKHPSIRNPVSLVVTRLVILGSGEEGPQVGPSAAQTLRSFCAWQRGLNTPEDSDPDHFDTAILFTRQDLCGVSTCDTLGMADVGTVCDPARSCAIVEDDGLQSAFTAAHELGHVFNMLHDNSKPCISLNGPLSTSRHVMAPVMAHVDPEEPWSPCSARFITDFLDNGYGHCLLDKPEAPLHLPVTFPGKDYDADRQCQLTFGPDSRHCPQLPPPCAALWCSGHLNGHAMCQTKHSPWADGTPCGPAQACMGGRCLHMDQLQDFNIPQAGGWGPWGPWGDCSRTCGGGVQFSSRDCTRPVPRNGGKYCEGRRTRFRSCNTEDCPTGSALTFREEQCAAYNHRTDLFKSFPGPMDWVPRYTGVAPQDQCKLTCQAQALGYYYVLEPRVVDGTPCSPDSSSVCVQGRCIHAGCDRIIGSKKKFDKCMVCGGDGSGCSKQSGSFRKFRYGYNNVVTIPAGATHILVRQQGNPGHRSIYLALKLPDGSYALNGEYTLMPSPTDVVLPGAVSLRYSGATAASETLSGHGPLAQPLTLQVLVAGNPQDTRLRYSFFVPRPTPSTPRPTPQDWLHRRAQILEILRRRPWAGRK

The target of test [4] is T4, Catalytic domain of human MMP-1 (MMP-1cat) (human, UniProt P03956 100-269).
T4 sequence (looked up): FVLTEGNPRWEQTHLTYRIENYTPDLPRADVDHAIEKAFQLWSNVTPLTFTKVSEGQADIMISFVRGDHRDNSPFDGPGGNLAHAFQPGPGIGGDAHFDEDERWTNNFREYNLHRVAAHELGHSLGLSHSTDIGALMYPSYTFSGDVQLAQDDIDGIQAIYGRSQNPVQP

Test [5] concerns the target Catalytic domain of human MMP-3 (MMP-3cat) (human, UniProt P08254 100-272).

Catalytic domain of human MMP-3 (MMP-3cat), sequence (P08254 100-272): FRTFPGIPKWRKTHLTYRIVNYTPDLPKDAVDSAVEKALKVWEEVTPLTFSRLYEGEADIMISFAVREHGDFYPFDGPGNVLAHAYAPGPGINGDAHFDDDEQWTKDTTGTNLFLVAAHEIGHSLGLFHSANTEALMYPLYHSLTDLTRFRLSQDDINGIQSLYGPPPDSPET

B1: FLAG-tagged glycosylated human TIMP-3 (full-length tissue inhibitor of metalloproteinases 3), expressed in HEK293 (natural protein, UniProt P35625 24-211, looked up)
chain: CTCSPSHPQDAFCNSDIVIRAKVVGKKLVKEGPFGTLVYTIKQMKMYRGFTKMPHVQYIHTEASESLCGLKLEVNKYQYLLTGRVYDGKMYTGLCNFVERWDQLTLSQRKGLNYRYHLGCNCKIKSCYYLPCFVTSKNECLWTDMLSNFGYPGYQSKHYACIRQKGGYCSWYRGWAPPDKSIINATDP
modifications: glycosylated (only the 27 kDa glycosylated form remained after purification; single N-glycosylation site in the C-terminal domain)
One may read the Ki as a dissociation constant, usually derived from enzyme kinetics or from competition with a known ligand. Read a high Ki as a looser hold on the target. As for B1, the Ki was found to be 0.72 nM in test [1]; 0.38 nM in test [2]; 0.39 nM in test [3]; 1.1 nM in test [4]; 1 nM in test [5].
